B1: FAT10 wild type (His-3xFLAG-FAT10) [not stated] / NEDD8 ultimate buster-1 long (NUB1L) [not stated] (parent complex)
chain 1: MAPNASCLCVHVRSEEWDLMTFDANPYDSVKKIKEHVRSKTKVPVQDQVLLLGSKILKPRRSLSSYGIDKEKTIHLTLKVVKPSDEELPLFLVESGDEAKRHLLQVRRSSSVAQVKAMIETKTGIIPETQIVTCNGKRLEDGKMMADYGIRKGNLLFLACYCIGG
chain 2: MAQKKYLQAKLTQFLREDRIQLWKPPYTDENKKVGLALKDLAKQYSDRLECCENEVEKVIEEIRCKAIERGTGNDNYRTTGIATIEVFLPPRLKKDRKNLLETRLHITGRELRSKIAETFGLQENYIKIVINKKQLQLGKTLEEQGVAHNVKAMVLELKQSEEDARKNFQLEEEEQNEAKLKEKQIQRTKRGLEILAKRAAETVVDPEMTPYLDIANQTGRSIRIPPSERKALMLAMGYHEKGRAFLKRKEYGIALPCLLDADKYFCECCRELLDTVDNYAVLQLDIVWCYFRLEQLECLDDAEKKLNLAQKCFKNCYGENHQRLVHIKGNCGKEKVLFLRLYLLQGIRNYHSGNDVEAYEYLNKARQLFKELYIDPSKVDNLLQLGFTAQEARLGLRACDGNVDHAATHITNRREELAQIRKEEKEKKRRRLENIRFLKGMGYSTHAAQQVLHAASGNLDEALKILLSNPQMWWLNDSNPETDNRQESPSQENIDRLVYMGFDALVAEAALRVFRGNVQLAAQTLAHNGGSLPPELPLSPEDSLSPPATSPSDSAGTSSASTDEDMETEAVNEILEDIPEHEEDYLDSTLEDEEIIIAEYLSYVENRKSATKKN

The variants in the first experiment derive from B1. Kind of experiment: HA-immunoprecipitation, SDS-PAGE and immunoblot (ECL quantification); HEK293T cells transiently co-transfected with HA-NUB1L and FLAG-FAT10; three independent experiments; parent: 4.3; read off a plot.
For chain 1 MAPNASCLCVHVRSEEWDLMTFDANPYDSVKKIKEHVRSKTKVPVQDQVLLLGSKILKPRRDLDSYGIDKEKTIHLTLKVVKPSDEELPLFLVEDGDEAKRHLLQVRRDSSVAQVKAMIETKTGIIPETQIVTCNGKRLEDGKMMADYGIRKGNLLFLACYCIGG [chain 1 S62D, chain 1 S64D, chain 1 S95D, chain 1 S109D], the response is ~7.7 IP [FAT10] / Load [FAT10], FAT10 D = 1.
The same measure, in the same setting: next, chain 1 MAPNASCLCVHVRSEEWDLMTFDANPYDSVKKIKEHVRSKTKVPVQDQVLLLGSKILKPRRDLSSYGIDKEKTIHLELKVVKPSDEELPLFLVESGDEAKRHLLQVRRSSSVAQVKAMIETKTGIIPETQIVTCNGKRLEDGKMMADYGIRKGNLLFLACYCIGG [chain 1 S62D, chain 1 T77E]: ~2.8 IP [FAT10] / Load [FAT10], FAT10 D = 1; chain 1 MAPNASCLCVHVRSEEWDLMTFDANPYDSVKKIKEHVRSKTKVPVQDQVLLLGSKILKPRRSLSSYGIDKEKTIHLELKVVKPSDEELPLFLVESGDEAKRHLLQVRRSSSVAQVKAMIETKTGIIPETQIVTCNGKRLEDGKMMADYGIRKGNLLFLACYCIGG [chain 1 T77E]: ~1.8 IP [FAT10] / Load [FAT10], FAT10 D = 1.
Same read-out and setting: next, chain 1 MAPNASCLCVHVRSEEWDLMTFDANPYDSVKKIKEHVRSKTKVPVQDQVLLLGSKILKPRRSLDSYGIDKEKTIHLELKVVKPSDEELPLFLVESGDEAKRHLLQVRRSSSVAQVKAMIETKTGIIPETQIVTCNGKRLEDGKMMADYGIRKGNLLFLACYCIGG [chain 1 S64D, chain 1 T77E]: ~2.5 IP [FAT10] / Load [FAT10], FAT10 D = 1.
On the same count and under the same terms, next, chain 1 MAPNASCLCVHVRSEEWDLMTFDANPYDSVKKIKEHVRSKTKVPVQDQVLLLGSKILKPRRDLDSYGIDKEKTIHLELKVVKPSDEELPLFLVESGDEAKRHLLQVRRSSSVAQVKAMIETKTGIIPETQIVTCNGKRLEDGKMMADYGIRKGNLLFLACYCIGG [chain 1 S62D, chain 1 S64D, chain 1 T77E]: ~1.9 IP [FAT10] / Load [FAT10], FAT10 D = 1.
On to chain 1 MAPNASCLCVHVRSEEWDLMTFDANPYDSVKKIKEHVRSKTKVPVQDQVLLLGSKILKPRRDLDSYGIDKEKTIHLTLKVVKPSDEELPLFLVESGDEAKRHLLQVRRSSSVAQVKAMIETKTGIIPETQIVTCNGKRLEDGKMMADYGIRKGNLLFLACYCIGG [chain 1 S62D, chain 1 S64D], for which the response is ~4.7 IP [FAT10] / Load [FAT10], FAT10 D = 1.

Variants of B1 are the subject of another experiment. As to the kind of experiment: HA-immunoprecipitation, SDS-PAGE and immunoblot (ECL quantification); HEK293T cells transiently co-transfected with HA-NUB1L and FLAG-FAT10; three independent experiments; parent: 4; read off a plot.
Regarding chain 1 MAPNASCLCVHVRSEEWDLMTFDANPYDSVKKIKEHVRSKTKVPVQDQVLLLGSKILKPRRSLDSYGIDKEKTIHLTLKVVKPSDEELPLFLVESGDEAKRHLLQVRRSSSVAQVKAMIETKTGIIPETQIVTCNGKRLEDGKMMADYGIRKGNLLFLACYCIGG [chain 1 S64D], the response was ~2.6 IP [FAT10] / Load [FAT10], FAT10 D = 1.
In the case of chain 1 MAPNASCLCVHVRSEEWDLMTFDANPYDSVKKIKEHVRSKTKVPVQDQVLLLGSKILKPRRSLSSYGIDKEKTIHLTLKVVKPSDEELPLFLVESGDEAKRHLLQVRRDSSVAQVKAMIETKTGIIPETQIVTCNGKRLEDGKMMADYGIRKGNLLFLACYCIGG [chain 1 S109D], the response was ~3 IP [FAT10] / Load [FAT10], FAT10 D = 1.
For the variant chain 1 MAPNASCLCVHVRSEEWDLMTFDANPYDSVKKIKEHVRSKTKVPVQDQVLLLGSKILKPRRSLSSYGIDKEKTIHLELKVVKPSDEELPLFLVESGDEAKRHLLQVRRSSSVAQVKAMIETKTGIIPETQIVTCNGKRLEDGKMMADYGIRKGNLLFLACYCIGG [chain 1 T77E], the response is ~0.95 IP [FAT10] / Load [FAT10], FAT10 D = 1.
chain 1 MAPNASCLCVHVRSEEWDLMTFDANPYDSVKKIKEHVRSKTKVPVQDQVLLLGSKILKPRRDLSSYGIDKEKTIHLTLKVVKPSDEELPLFLVESGDEAKRHLLQVRRSSSVAQVKAMIETKTGIIPETQIVTCNGKRLEDGKMMADYGIRKGNLLFLACYCIGG [chain 1 S62D]: the response is ~3.4 IP [FAT10] / Load [FAT10], FAT10 D = 1.
For the variant chain 1 MAPNASCLCVHVRSEEWDLMTFDANPYDSVKKIKEHVRSKTKVPVQDQVLLLGSKILKPRRSLSSYGIDKEKTIHLTLKVVKPSDEELPLFLVEDGDEAKRHLLQVRRSSSVAQVKAMIETKTGIIPETQIVTCNGKRLEDGKMMADYGIRKGNLLFLACYCIGG [chain 1 S95D], the response is ~2.6 IP [FAT10] / Load [FAT10], FAT10 D = 1.

Variants of B1 are the subject of the next experiment. As to the kind of experiment: HA-immunoprecipitation, SDS-PAGE and immunoblot (ECL quantification); HEK293T cells transiently co-transfected with HA-NUB1L and FLAG-FAT10; three independent experiments; parent: 4.
Consider chain 1 MAPNASCLCVHVRSEEWDLMTFDANPYDSVKKIKEHVRSKTKVPVQDQVLLLGSKILKPRRDLDSYGIDKEKTIHLELKVVKPSDEELPLFLVEDGDEAKRHLLQVRRDSSVAQVKAMIETKTGIIPETQIVTCNGKRLEDGKMMADYGIRKGNLLFLACYCIGG [chain 1 S62D, chain 1 S64D, chain 1 T77E, chain 1 S95D, chain 1 S109D], for which the response was 1 IP [FAT10] / Load [FAT10], FAT10 D = 1.

A further experiment covers variants of B1. Kind of experiment: HA-immunoprecipitation, SDS-PAGE and immunoblot (ECL quantification); HEK293T cells transiently co-transfected with HA-NUB1L and FLAG-FAT10; three independent experiments; parent: 4.3.
Take chain 1 MAPNASCLCVHVRSEEWDLMTFDANPYDSVKKIKEHVRSKTKVPVQDQVLLLGSKILKPRRDLDSYGIDKEKTIHLELKVVKPSDEELPLFLVEDGDEAKRHLLQVRRDSSVAQVKAMIETKTGIIPETQIVTCNGKRLEDGKMMADYGIRKGNLLFLACYCIGG [chain 1 S62D, chain 1 S64D, chain 1 T77E, chain 1 S95D, chain 1 S109D]: the response was 1 IP [FAT10] / Load [FAT10], FAT10 D = 1.
